Data: the supplement of paper PMC12764529
± gives the half width of the 95% confidence interval.

experiment: folding stability dG unfold from chymotrypsin proteolysis; higher = more stable
How it was run: (§1)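 Bayesian fitting of sequencing counts gave K50 for each design. Unfolding free energy followed by setting this against a sequence-predicted unfolded-state K50 and a shared folded-state K50, either per protease or with trypsin and chymotrypsin combined. The designs, under 80 residues and lacking cysteine, were digested in a PA-tagged cDNA display format at 11 threefold-diluted protease concentrations and without protease, and only those with AlphaFold2 dimer inter-PAE above 15 were kept.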

Sequence | folding stability dG unfold [kcal/mol]
GMVEVTEERFEPETGKRIVTIRAPGRDLTVTFDPSTGIATFYDPSDGRTFTVPFTSLEEAVEAAKELALEES [r1_177_JUSTAS] | 4.81 ± 0.11
SAGGSAGGSAGGSMSVVVTVKDPRTGSTTTVTVSPAEVEEAIEEAKKKGYSVVTVSEGGSAGGSAGGSAGGS [r4_102_JUSTAS] | 1.43 ± 0.024
QEIPIKELIKEALENGRPIVFPNGMEITDINPDGSITVKMPYYNPDDPGQPVQPVEMQIKIDEDGRIEVEFS [r1_284_TrROS] | 1.76 ± 0.054
SAGKKKIKIEIVKVEKNENGETIIRVKVKLEDGSEKEITINLDDLKNGNLKNMTAEEIAKLFPNIEIESAGG [r19_74_TrROS_Hall] | 1.58 ± 0.084
SAGIEEVAKEIAETLEELLPSEYKILDAKAIPLPDDVVIVPITVQKFDPNGKPLGELQFVVVIPPGEASAGG [r19_28_TrMRF] | 0.519 ± 0.096
SMLSEMPPEELAERIARELGLVGAEVEAVRVGDVLLVPLRLRDPVRDEVRLLVLLVVPEDDGRVLLTDLSSA [r9_1042_TrMRF] | 2.5 ± 0.029
SAGGSAGGSMRIEFPELGVEVELEPLPGPHVLLRAVFPDGRVYLFRLDPDGRLVEVEPVEVLASAGGSAGGS [r12_56_TrMRF] | 3.42 ± 0.035
SAGGSAGGEWVIINIMFRFPPGDPNIKIEIKFPGLPKDMKIEYSIFPTDNWYYIMVSIWVPPNASAGGSAGG [r6_482_TrROS] | 5.16 ± 0.15
SAGGSAGGSSFEITVYHPDKGKPFKAKVDIEPELVDGDGKPVLVYKAKITIGDKPFEAVFVLNSAGGSAGGS [r20_39_TrMRF] | 2.89 ± 0.043
SAGGSAGGSAGGGYTLVTVTLRSPTPTEEVVEEKYPPSVPLEEVKAKYEPLGWEVSFDLLSAGGSAGGSAGG [r7_226_JUSTAS] | 0.422 ± 0.13
SAGGSAGGSAGGVPPESVLLSEEKVGGKTVEIVRDPATGKLYRVTKVPGSDSIEVEELGLSAGGSAGGSAGG [r7_179_JUSTAS] | 2.549 ± 0.013
SLSITVPPDKGLVLVNEGLKDGKVKLFLDDKVEEVEVPAGETLVFEVPPDYKGFKLEVIGDDGVVLSVDGSA [r9_143_TrMRF] | 0.322 ± 0.29
SAGGGKPVNILIKKPNEIKIIPIPVVKIEPLESPDKLYIIFEDGYIMEFDPKTLELLSIEKVKPIEEASAGG [r13_636_TrMRF] | 1.94 ± 0.066
SAGMTAEELAAEALAKLPPGAKEVTVEIEVNGELVTVTITVEAAPPPPPPEETITTVDEDTGEVREETLSAG [r5_236_TrROS_Hall] | 0.119 ± 0.034
SAGGSAGGSADGPPTFRVRIKWKNGKKMKFEIDPNDSLEQVADPLSKLPGIDDIKDLEIYPSAGGSAGGSAG [r3_308_TrROS] | 1.05 ± 0.44
SAGSMELLEKKEGKLPDGRVYTTETLRNPANGLYEVKTFVFEPGGNPLAEERITYEGDKLVSSETIYLGSAG [r14_828_JUSTAS] | 0.842 ± 0.075
SAGGSAGGSAGPVLKIKVEVKLEKKYDKNGKLVEEKLEVKVEIELLEPAPPASDEELKKKSAGGSAGGSAGG [r11_131_TrROS_Hall] | 1.69 ± 0.2
SAGMEEKLVEAVFEEGPLEEAVEFIRDFLESEGYEVEPLEVEVLSVEETEEGPRVRVRARVLVRPPDASAGG [r19_325_TrMRF] | 1.52 ± 0.16
SPLKPGDVYTEPGGPLLRVEKVTLSEDPNKFPKKLEIELVPIPPPTPTLEEYTLPNGERRTLVLFEFDGPSA [r9_914_JUSTAS] | -1.17e-05 ± 0.5
SADALKKILSNIHSVEFDPKWGWVTIHFPNKSKIKKALKEGFPRVEMQEDPDGHMMIRIRVPKLPPGQPSAG [r14_115_TrROS] | 2.65 ± 0.043
SAMTLTVRVKATPEQLKEALEEETGAKVTIEEEEDGVLTITVEVSEEEREKLAEALKKLPGLEIEIEEESAG [r14_521_TrROS_Hall] | 1.89 ± 0.026

experiment: folding stability dG unfold (combined trypsin and chymotrypsin); higher = more stable
How it was run: as §1

Sequence | folding stability dG unfold [kcal/mol]
GMIVEIVESPEGTVTLYEVLLPGGTPILVGAADEEKLRERVAKELGVSFEKLKITKTTTLSPEELAALLAAS [r1_119_JUSTAS] | 1.66 ± 0.14
SAGGKTLYVRIIIENKKTGKKEEKIIKIKNVKTLDELLEKAKKEAEKKGYKIKKIEVYDKKTGKKLKLSAGG [r13_771_TrROS_Hall] | 1.73 ± 0.39
SAGGSAGGSAGMVVTINDPKKAKKIDENSVITIPDGKKYKVVKVEVDEKNGYWTLTIEPLSAGGSAGGSAGG [r11_316_JUSTAS] | 2.18 ± 0.15
SAGGFKIERDPEDGQVTITFPMPGFGMPFRISIPYDPNGDIDVDIEPSPGMPPHHRDMIENLARELADSAGG [r13_139_TrROS] | 0.562 ± 0.13
SAGGSAGGSAGGSKKTLTLPITITVTVTYTNEDGSTTETTYTYTLTINFEVSENDTGLLSAGGSAGGSAGGS [r10_1133_TrMRF] | 2.92 ± 0.071
SMPKTIELEIDEDLPEEEVRARLLAQGFEEIEFHELEDPEVRRVTATRPEDDETVVVTVRPPPVPPDAPGSA [r9_1090_JUSTAS] | 2.28 ± 0.18
SAGGGMVVYVTVPPDDPRVEELKERLAADPRVSDVTVEKVEEYPDTVRLRFTFPGDPAVVAAARALLSAGGS [r16_394_JUSTAS] | 1.32 ± 0.053
SAGGMTTFELYDPVNNKKYTLTYDPATNTLTLYNPENGEILETKPVPNLQSVEAPIVPGGIEVGVVINSAGG [r13_720_JUSTAS] | 2.5 ± 0.085
SMTVTLPDGTTVETSVSTEKLPNGTVVTTTTTTFTTPDGTVVPSTTVSVSPAPPTELPFTVLYRPEGSLLSA [r9_1168_JUSTAS] | 0.00633 ± 0.083
SAGGSAGGSAGGSLSSNGSSLPPVPPAPVTDEPVEFPTPVLVTVSYYPLTGERRVEVLLSAGGSAGGSAGGS [r4_305_JUSTAS] | 0.178 ± 0.068
